Results as given in patent publication US10907134B2, “Mutated genes for the catalytic protein of oplophorus luciferase and use thereof” (JNC CORPORATION, priority 2013, dated 2021).

Legend:
Assay type in all cases: biochemical
[1] = Substrate specificities of KAZ mutants (ZZ-fused, crude enzyme), CTZ; details: for Relative Luminescence Activity CTZ Int. / Relative Luminescence Activity CTZ Imax: ZZ-fused crude enzyme, 1 μg substrate; for Relative Luminescence Activity CTZ Int.: integrated for 60 seconds; for Relative Luminescence Activity CTZ Imax: maximum intensity of luminescence; for Substrate specificity: coelenterazine versus its analogues
Method: (§1) The coelenterazine analogues used for substrate specificity studies were synthesized by the methods described in publications. Specifically, bis-coelenterazine was synthesized by the method described in Nakamura et al. (1997) Tetrahedron Lett. 38: 6405-6406; furimazine by the method described in Hall et al. (2012) ACS Chem. Biol. […]; and, 6h-coelenterazine, f-coelenterazine and 6h-f-coelenterazine by the methods described in Inouye et al (2013) Biochem. Biophys. Res. Commun. 437: 23-28.
(§2) DTT was added to the crude enzyme solutions obtained in EXAMPLE 17 at a final concentration of 1 mM and the mixtures were allowed to stand in an ice water for more than 5 hours in the same manner as Example 8. A luminescence reaction was started by the addition of 1 μL each of the crude enzyme solutions to 100 μL of TE containing 1 μg of coelenterazine (manufactured by JNC Corp.) or its analogues. The luminescence activities were determined using a luminometer (manufactured by Atto Inc.: AB2200) for 60 seconds, and the maximum intensity of luminescence (Imax) was shown as relative luminescence activity.

[2] = Substrate specificities of KAZ mutants (ZZ-fused, crude enzyme), 6h-CTZ; details: for Relative Luminescence Activity 6h-CTZ Int. / Relative Luminescence Activity 6h-CTZ Imax: 1 μg substrate; for Relative Luminescence Activity 6h-CTZ Int.: integrated for 60 seconds; for Relative Luminescence Activity 6h-CTZ Imax: maximum intensity of luminescence
Method: as §1, §2

[3] = Substrate specificities of KAZ mutants (ZZ-fused, crude enzyme), 6h-f-CTZ; details: 1 μg substrate; for Relative Luminescence Activity 6h-f-CTZ Int.: integrated for 60 seconds; for Relative Luminescence Activity 6h-f-CTZ Imax: maximum intensity of luminescence
Method: as §1, §2

| Relative Luminescence Activity CTZ Int. [1] | Relative Luminescence Activity CTZ Imax [1] | Relative Luminescence Activity 6h-CTZ Int. [2] | Relative Luminescence Activity 6h-CTZ Imax [2] | Relative Luminescence Activity 6h-f-CTZ Int. [3] | Relative Luminescence Activity 6h-f-CTZ Imax [3] | Luminescence activity compared with dnKAZ with 6h-coelenterazine [2] | Molecule | Substrate specificity [1] |
| --- | --- | --- | --- | --- | --- | --- | --- | --- |
| 9.0 | 8.4 | 2.1 | 1.6 | 2.0 | 1.6 |  | KAZ-A54I: KAZ with single amino acid substitution A54I, SEQ ID NO: 6 (protein) FTLADFVGDWQQTAGYNQDQVLEQGGLSSLFQALGVSVTPIQKVVLSGENGLKIDIHVIIPYEGLSGFQMGLIEMIFKVVYPVDDHHFKIILHYGTLVIDGVTPNMIDYFGRPYPGIAVFDGKQITVTGTLWNGNKIYDERLINPDGSLLFRVTINGVTGWRLCENILA |  |
| 19.1 | 23.1 | 6.1 | 5.8 | 5.7 | 5.2 |  | KAZ-A54I-Y138I: KAZ mutant with two amino acid substitutions A54I and Y138I, SEQ ID NO: 14 (protein) FTLADFVGDWQQTAGYNQDQVLEQGGLSSLFQALGVSVTPIQKVVLSGENGLKIDIHVIIPYEGLSGFQMGLIEMIFKVVYPVDDHHFKIILHYGTLVIDGVTPNMIDYFGRPYPGIAVFDGKQITVTGTLWNGNKIIDERLINPDGSLLFRVTINGVTGWRLCENILA | high substrate specificity for coelenterazine |
| 5.9 | 7.2 | 0.6 | 0.4 | 0.7 | 0.6 |  | KAZ-V44I: KAZ with single amino acid substitution V44I, SEQ ID NO: 4 (protein) FTLADFVGDWQQTAGYNQDQVLEQGGLSSLFQALGVSVTPIQKIVLSGENGLKADIHVIIPYEGLSGFQMGLIEMIFKVVYPVDDHHFKIILHYGTLVIDGVTPNMIDYFGRPYPGIAVFDGKQITVTGTLWNGNKIYDERLINPDGSLLFRVTINGVTGWRLCENILA |  |
| 5.9 | 7.5 | 0.3 | 0.2 | 0.8 | 0.6 |  | KAZ-Y138I: KAZ with single amino acid substitution Y138I, SEQ ID NO: 8 (protein) FTLADFVGDWQQTAGYNQDQVLEQGGLSSLFQALGVSVTPIQKVVLSGENGLKADIHVIIPYEGLSGFQMGLIEMIFKVVYPVDDHHFKIILHYGTLVIDGVTPNMIDYFGRPYPGIAVFDGKQITVTGTLWNGNKIIDERLINPDGSLLFRVTINGVTGWRLCENILA |  |
| 1.0 | 1.0 | 0.2 | 0.1 | 0.7 | 0.6 |  | KAZ: wild 19 kDa catalytic protein of Oplophorus luciferase (19kOLase), amino acid sequence SEQ ID NO: 2 (protein, listed as Oplophorus gracilirostris) FTLADFVGDWQQTAGYNQDQVLEQGGLSSLFQALGVSVTPIQKVVLSGENGLKADIHVIIPYEGLSGFQMGLIEMIFKVVYPVDDHHFKIILHYGTLVIDGVTPNMIDYFGRPYPGIAVFDGKQITVTGTLWNGNKIYDERLINPDGSLLFRVTINGVTGWRLCENILA |  |
| 9.9 | 17.1 | 5.3 | 4.3 | 4.2 | 3.6 |  | KAZ-V44I-Y138I: KAZ mutant with two amino acid substitutions V44I and Y138I, SEQ ID NO: 12 (protein) FTLADFVGDWQQTAGYNQDQVLEQGGLSSLFQALGVSVTPIQKIVLSGENGLKADIHVIIPYEGLSGFQMGLIEMIFKVVYPVDDHHFKIILHYGTLVIDGVTPNMIDYFGRPYPGIAVFDGKQITVTGTLWNGNKIIDERLINPDGSLLFRVTINGVTGWRLCENILA | high substrate specificity for coelenterazine |
| 12.7 | 15.3 | 5.6 | 4.5 | 4.0 | 3.2 |  | KAZ-V44I-A54I: KAZ mutant with two amino acid substitutions V44I and A54I, SEQ ID NO: 10 (protein) FTLADFVGDWQQTAGYNQDQVLEQGGLSSLFQALGVSVTPIQKIVLSGENGLKIDIHVIIPYEGLSGFQMGLIEMIFKVVYPVDDHHFKIILHYGTLVIDGVTPNMIDYFGRPYPGIAVFDGKQITVTGTLWNGNKIYDERLINPDGSLLFRVTINGVTGWRLCENILA | high substrate specificity for coelenterazine |
| 66.7 | 66.7 | 11.1 | 12.9 | 9.6 | 9.5 | higher luminescence activity than dnKAZ | KAZ-V44I-A54I-Y138I: KAZ mutant with three amino acid substitutions V44I, A54I and Y138I, SEQ ID NO: 16 (protein) FTLADFVGDWQQTAGYNQDQVLEQGGLSSLFQALGVSVTPIQKIVLSGENGLKIDIHVIIPYEGLSGFQMGLIEMIFKVVYPVDDHHFKIILHYGTLVIDGVTPNMIDYFGRPYPGIAVFDGKQITVTGTLWNGNKIIDERLINPDGSLLFRVTINGVTGWRLCENILA | high substrate specificity for coelenterazine |
